Test results taken from patent US20160280796A1.

Columns and labels:
[1] = molecular target: human CD3 (CD3ε of the TCR/CD3 complex) on purified human CD3 T cells (human) (UniProt P07766); assay: flow cytometry on purified human CD3 T cells, antibody at 1 µg/ml
[2] = molecular target: human CD3 (CD3ε of the TCR/CD3 complex) on purified human CD3 T cells (human) (UniProt P07766); assay: flow cytometry on purified human CD3 T cells, antibody at 10 µg/ml
[3] = molecular target: human CD3 (CD3ε of the TCR/CD3 complex) on purified human CD3 T cells (human) (UniProt P07766); assay: flow cytometry on purified human CD3 T cells, antibody at 0.1 µg/ml
[4] = molecular target: human CD3 (CD3ε of the TCR/CD3 complex) on purified human CD3 T cells (human) (UniProt P07766); assay: flow cytometry on CD3+ Jurkat cells, 10 µg/mL, FL4: anti-His mouse mAb + APC anti mIgG, RED2-HLin (right panel); unstained Jurkat 7.61
[5] = molecular target: human CD3 (CD3ε of the TCR/CD3 complex) on purified human CD3 T cells (human) (UniProt P07766); assay: flow cytometry on CD3+ Jurkat cells, 10 µg/mL, FL1: anti-His FITC, GRN-HLin (left panel). DOUBTFUL: the printed value disagrees with the histogram, which lies right of ESK1+L2K, and equals the second row of the left table of FIGURE 8

B1: control bi-specific antibody (irrelevant human IgG1 antibody ET901 as scFv replacing ESK1 scFv, with anti-CD3 scFv) (bispecific antibody, part only; not given: ET901 control scFv, part only)
chain, part: DVQLVQSGAEVKKPGASVKVSCKASGYTFTRYTMHWVRQAPGQGLEWIGYINPSRGYTNYADSVKGRFTITTDKSTSTAYMELSSLRSEDTATYYCARYYDDHYCLDYWGQGTTVTVSSGEGTSTGSGGSGGSGGADDIVLTQSPATLSLSPGERATLSCRASQSVSYMNWYQQKPGKAPKRWIYDTSKVASGVPARFSGSGSGTDYSLTINSLEAEDAATYYCQQWSSNPLTFGGGTKVEIK
[1]
  Median fluorescence intensity (MFI): 153 MFI
[2]
  Median fluorescence intensity (MFI): 188 MFI
[3]
  Median fluorescence intensity (MFI): 26.2 MFI
[4]
  Geom. Mean: 94.3
[5]
  Geom. Mean: 47.9
